One substance from patent US20080227128 can be followed below.

The test system of data set [1] is T1, KPLGSDDSLADY peptide.
T1 sequence: KPLGSDDSLADY

In data set [2] the test system is T2, MEK substrate (MEKSBS).
T2 sequence: XDPDHDHTGFLTEYVATRW

purified MEK: the “phosphorylation in an in vitro kinase assay” value in data set [1] and in data set [2] was “are both phosphorylated in the presence of purified MEK in an in vitro kinase assay” in each case.
